According to publication PMC3406685 (The Journal of Biological Chemistry, 2012):

Tests used:
[1] = molecular target: triple-helical peptide II-27-C (II-27-derived sequence with GVOGEA within (GPP)5 hosts) (O in the letters is hydroxyproline); assay: real-time label-free cell adhesion
[2] = molecular target: triple-helical peptide II-27-B (II-27-derived sequence with GVOGEA within (GPP)5 hosts) (O in the letters is hydroxyproline); assay: real-time label-free cell adhesion

B1: integrin α1β1 on rat pheochromocytoma PC12 cells (receptor, rat (endogenous in PC12))
chain 1: FNVDVKNSMSFSGPVEDMFGYTVQQYENEEGKWVLIGSPLVGQPKARTGDVYKCPVGRERAMPCVKLDLPVNTSIPNVTEIKENMTFGSTLVTNPNGGFLACGPLYAYRCGHLHYTTGICSDVSPTFQVVNSFAPVQECSTQLDIVIVLDGSNSIYPWESVIAFLNDLLKRMDIGPKQTQVGIVQYGENVTHEFNLNKYSSTEEVLVAANKIGRQGGLQTMTALGIDTARKEAFTEARGARRGVKKVMVIVTDGESHDNYRLKQVIQDCEDENIQRFSIAILGHYNRGNLSTEKFVEEIKSIASEPTEKHFFNVSDELALVTIVKALGERIFALEATADQSAASFEMEMSQTGFSAHYSQDWVMLGAVGAYDWNGTVVMQKANQMVIPHNTTFQTEPAKMNEPLASYLGYTVNSATIPGDVLYIAGQPRYNHTGQVVIYKMEDGNINILQTLGGEQIGSYFGSVLTTIDIDKDSYTDLLLVGAPMYMGTEKEEQGKVYVYAVNQTRFEYQMSLEPIRQTCCSSLKDNSCTKENKNEPCGARFGTAIAAVKDLNVDGFNDVVIGAPLEDDHAGAVYIYHGSGKTIREAYAQRIPSGGDGKTLKFFGQSIHGEMDLNGDGLTDVTIGGLGGAALFWARDVAVVKVTMNFEPNKVNIQKKNCRVEGKETVCINATMCFHVKLKSKEDSIYEADLQYRVTLDSLRQISRSFFSGTQERKIQRNITVRESECIRHSFYMLDKHDFQDSVRVTLDFNLTDPENGPVLDDALPNSVHEHIPFAKDCGNKERCISDLTLNVSTTEKSLLIVKSQHDKFNVSLTVKNKGDSAYNTRTVVQHSPNLIFSGIEEIQKDSCESNQNITCRVGYPFLRAGETVTFKIIFQFNTSHLSENAIIHLSATSDSEEPLESLNDNEVNISIPVKYEVGLQFYSSASEHHISVAANETIPEFINSTEDIGNEINVFYTIRKRGHFPMPELQLSISFPNLTADGYPVLYPIGWSSSDNVNCRPRSLEDPFGINSGKKMTISKSEVLKRGTIQDCSSTCGVATITCSLLPSDLSQVNVSLLLWKPTFIRAHFSSLNLTLRGELKSENSSLTLSSSNRKRELAIQISKDGLPGRVPLWVILLSAFAGLLLLMLLILALWKIGFFKRPLKKKMEK
chain 2: QTDKNRCLKANAKSCGECIQAGPNCGWCTNTTFLQEGMPTSARCDDLEALKKKGCHPSDIENPRGSQTIKKNKNVTNRSKGMAEKLRPEDITQIQPQQLLLKLRSGEPQKFTLKFKRAEDYPIDLYYLMDLSYSMKDDLENVKSLGTDLMNEMRRITSDFRIGFGSFVEKTVMPYISTTPAKLRNPCTSEQNCTSPFSYKNVLSLTDRGEFFNELVGQQRISGNLDSPEGGFDAIMQVAVCGSLIGWRNVTRLLVFSTDAGFHFAGDGKLGGIVLPNDGQCHLENNVYTMSHYYDYPSIAHLVQKLSENNIQTIFAVTEEFQPVYKELKNLIPKSAVGTLSGNSSNVIQLIIDAYNSLSSEVILENSKLPDGVTINYKSYCKNGVNGTGENGRKCSNISIGDEVQFEISITANKCPNKESENQLKLNPLGFTEEVEVVLQFICKCNCQSHGIPASPKCHEGNGTFECGACRCNEGRVGRHCECSTDEVNSEDMDAYCRKENSSEICSNNGECVCGQCVCRKRENTNEIYSGKFCECDNFNCDRSNGLICGGNGVCRCRVCECYPNYTGSACDCSLDTVPCVATNGQICNGRGICECGACKCTDPKFQGPTCETCQTCLGVCAEHKECVQCRAFNKGEKKDTCAQECSHFNLTKVESREKLPQPVQVDPVTHCKEKDIDDCWFYFTYSVNSKGEAHVHVVETPDCPTGPDIIPIVAGVVAGIVLIGLALLLIWKLLMIIHDRREFAKFEKEKMNAKWDTGENPIYKSAVTTVVNPKYEGK
- adhesion relative to that on II-27 [1]: ~40%
- adhesion relative to that on II-27 [2]: ~40%
